According to patent publication US20200147199A1:

Biological target: ZIKV E Domain III ([..]), polyhistidine-AviTag, produced in HEK-293-6E cells (ZIKV)
Experiment: ELISA on coated ZIKV EDIII
Conditions: remark: other sources report otherwise

B1: Z059 (MEX84_p4-34) (antibody, V domains shown)
VH: EVQLVQSGAEVKTPGSSVKVSCKTSGGTFSNFAITWVRQAPGQGLEWMGGIIPLFGITNYTQKFQGRVTITTDESKTTAYMDLSGLRSEDTAVYFCARGRDSSGRLLDHWGQGTLVTVSS
VL: EIVMTQSPATLSVSPGERATLSCRASQTVNRNLAWYQQKPGQAPRLLIYAASARATGVPARFSGSGSGTEFTLTISSLQSEDFVVYYCQQYNNWPPLTFGGGTKLEIK
  EC50: 0.61 µg/mL

B2: Z017 (MEX84_p2-58) (antibody, V domains shown)
VH: QVQLVQSGAGMRKPGASVKVSCKASGYSFNDYYIHWVRQAPGQGLEWMGWINPKSGFTNYAQRFQGRVTMTGDTSNSVAYMELTRLTSDDTAVYYCARGGRINAPLGFDPWGQGTLVTVSS
VL: EIVLTQSPDTLSLSPGETATLSCRASQSIGSISLGWYQQKFGQAPRLLIYGASTRATGTPDRFSGSGSETDFTLTISRLEPEDSAVYYCQQYVSSPLRFGGGTKVEIK
  EC50: > 10 µg/mL

B3: Z007 (MEX105_50) (antibody, V domains shown)
VH: EVQLLESGGGLVRPGGSLRLSCTASGFTFRRYAMAWVRQAPGKGLEWVSLIYDGDDSTYYAKSVKGRFAISRDNSKNTLSLQMNSLRAEDTAVYYCVKDRDNGWSSIVDWGQGTLVTVSS
VL: DIQMTQSPSTLSASVGDRVTITCRASHSISGWLAWYQQKPGKAPKLLIYQASILESGVPSRFSGSGSGTEFTLTIGSLQPEDFATYFCQQYSTFWTFGQGTKVEIK
  EC50: 0.0346 µg/mL

B4: Z008 (MEX105_60) (antibody, V domains shown)
VH: EVQLLESGGGLVRPGGSLRLSCTASGFTFRRFAMAWVRQAPGKGLEWVSLIWNGDDSTYYAESVRGRFTISRDNSHNTLSLQMRSLRAEDTAIYYCVKDRDNGWSSIVDWGQGTLVTVSS
VL: DIQMTQSPSTLSASVGDRVTITCRASQTIGNWLAWYQQKPGKAPKLLIYQASVLESGVPSRFSGSGSGTEFTLTISSLQPEDFATYFCQQYSTFWTFGQGTKVEIK
  EC50: 0.0326 µg/mL

B5: Z009 (MEX105_64) (antibody, V domains shown)
VH: EVQLLESGGGLVRPGGSLRLSCTASGFTFRRYAMAWVRQAPGKGLEWVSLIYNGDDSTYYAESVKGRFTVSRDNSQNTLSLQMNSLRAEDTAIYYCVRDRDNGWSSIVDWGQGTLVTVSS
VL: DIQMTQSPSTLSASVGDRVTITCRASRTIGSWLAWYQQKPGKAPKLLIYQASILEGGVPSRFSGSVSGTEFTLTIRSLQPEDFATYFCQQYSTFWTFGQGTKVEIK
  EC50: 0.0284 µg/mL

B6: Z051 (BRA138_59) (antibody, V domains shown)
VH: QVQLQESGPGLVKPSQTLSLTCTVSGVSISSGGYYYSWFRQLPGKGLEWIGHIYYTGNTHYNPSLRSRLTISVDTSKNQFSLKLSSVTAADTARYYCARAWCEYAAYCWFDPWGRGTLVTVSS
VL: EIVLTQSPGTLSLSPGERATLSCRASQSVTSSYLAWYQHKPGQAPRLLIYGASSRAPGIPDRFSGSGSGTDFTLTISRLEPEDFAVYWCQQYGRSPFTFGQGTKLEIK
  EC50: 1.86 µg/mL

B7: Z052 (BRA138_62) (antibody, V domains shown)
VH: QVQLQESGPGLVKPSQTLSLTCTVSGGSITGGVYYWNWIRHHPGKGLEWIGYMFYSGDTDYNPSLRSRVTISGDTSKNKFSLNLNSVTAADTAVYYCARAGFDYGSPVSAFDIWGQGTLVTVSS
VL: EIVLTQSPATLSLSPGERATLSCRASQSVSSTYLVWYQQKPGQAPRLLIYGASSRATGIPDRFSGSGSGTDFTLTISRLEPEDFAVYFCQQYAHSPRGYTFGQGTKLEIK
  EC50: 0.0131 µg/mL

B8: Z053 (BRA138_65) (antibody, V domains shown)
VH: QLQLQESGPGLVKPSETLSLTCTVSGGSISSYNYYWGWIRQPPGKGLEFIGSIYYTGSTYYNPSLRSRVTISVDTSKNQFSLKLTSVTAADTAVYYCARHGPGMGHNWYFDLWGRGTLVTVSS
VL: EIVLTQSPATLSLSPGERATLSCRASQSISSYLAWYQQKPGQAPRLLIYDASNRAPGIPARFSGSGSGTDFTLTISSLEPEDFAVYYCQQRSTWLTFGGGTKVEIK
  EC50: 1.68 µg/mL

B9: Z056 (MEX84_p2-94) (antibody, V domains shown)
VH: EVQLVQSGAEVKKPGASVKVSCKASGNTFMGYYFHWVRQAPGQGLEWMGWINPNSGHANIAQTFQGRVTMTRDPSITTAYMELSRLRSDDTAVFYCARGGMLGQLWALDNWGQGTLVTVSS
VL: DIQMTQSPSTLSASVGDRVTITCRASQSISHWLAWYQQRPGEAPKLLIYQASTLESGVPSRFSGSGSGTEFTLSISSLQPDDFATYYCQQYQSSPYTFGQGTKLEIK
  EC50: 0.982 µg/mL

B10: Z005 (MEX18_13) (antibody, V domains shown)
VH: EVQLLESGGGLVQPGGSLRLSCAASGFTFSSYAMSWVRQAPGKGLEWVSSFSGIDDSTWYADSVKGRFTISRDNSKSTLYLQMNSLRAEDTAVYYCAKDRLVRGFAEVLDYWGRGTLVTVSS
VL: DIQMTQSPSSLSASVGDRVTITCRASQDISKYLAWYQQRPGKVPNLLIYTASTLQSGVPSRFSGSGSGTHFTLTISSLQPEDVATYYCQKYNSVPWTFGQGTKVEIK
  EC50: 0.216 µg/mL

B11: Z055 (MEX84_p4-61) (antibody, V domains shown)
VH: EVQLVQSGAEVKKPGASVKVSCKASGYTFSGYYIHWLRQAPGQGLEWMGWINSNSGGADSGPRFHGRVTMTRDTSINTAYLELTNLRSDDTAVYYCARRTYYDTRFPYWYFDLWGRGTLVTVSS
VL: AIRMTQSPSSLSASVGDRVTITCRASQDIGSYLNWYQQKPGKAPNVLISAASTLQSGVPSRISGIGSGTDFTLTISSLQPEDFATYYCQQSLSAPYTFGQGTKLEIK
  EC50: 1.88 µg/mL

B12: Z002 (MEX18_27) (antibody, V domains shown)
VH: EVQLLESGGGLVQPGGSLRLSCATSGFTFSTYAMSWVRQAPGKGLEWVSSFSGVDDSTYYAESVKGRFTISRDNSKNTVYLQMTRLRAEDTAVYYCAKDRGPRGVGELFDSWGQGTLVTVSS
VL: DIQMTQSPSTLSASVGDRVTMTCRASQSINRWLAWYQQKPGKAPKLLIYTTSTLKSGVPSRFSGSGSGTEFTLTISSLQPDDFATYYCQHFHSVPWTFGQGTKVEIK
  EC50: 0.0252 µg/mL

B13: Z034 (BRA112_09) (antibody, V domains shown)
VH: EVQLLESGGGLAQPGGSLRLSCETSGFTFRSYGMGWVRQAPGKGLEWVSSIYISGDSTYYAASVKGRFTISRDNSKSTLYLQMDRLTAEDTAVYYCVRDRIQGGFGELYRYWGQGTLVTVSS
VL: DIQMTQSPSTLSASVGDRVTMTCRASQSVNKWLAWYQQKPGKAPKLLIYETSILESGVSSRFSGSGSGTEFTLTISSLQPDDFATYYCQHYHGYPWTFGQGTKVEIK
  EC50: 0.0235 µg/mL

B14: Z003 (MEX18_58) (antibody, V domains shown)
VH: EVQLLESGGGLVQPGGSLRLSCATSGFTFTTFAMSWVRQAPGKGLEWVSSISGADDSTYYAASVKGRFTISRDNSRSTLFLQMNSLRAEDTAVYYCAKDRGPRGVGELFDSWGQGTLVTVSS
VL: DIQMTQSPSTLSASVGDRVTITCRASQSISKWLAWYQQKPGKAPRLLIYTTSTLKSGVPSRFSGSGSGTEFTLTISSLQPDDFATYYCQHFFSVPWTFGQGTKVEIK
  EC50: 0.0255 µg/mL

B15: Z011 (MEX105_15) (antibody, V domains shown)
VH: EVQLLESGGGLVQPGGSLRLSCAASGFTFRTYAMSWVRQPPGKGLEWVSSISAREDSTYFAASVRGRFTISRDNSKNTLYLQMNNLRAEDTALYYCAKDRLQLGVGELYESWGQGTLVTVSS
VL: DIQMTQSPSTLSASVGDRVTITCRASQNINSWLAWYQQKPGKAPKLLIYMASSLQSGVPSRFSGSGSGTEFTLTVSSLQPDDFATYYCQHYHSYPWTFGQGTKVEIK
  EC50: 0.038 µg/mL

B16: Z050 (BRA138_28) (antibody, V domains shown)
VH: QVQLVQSGAEVKKPGSSVKVSCKAPGGTFSRYSIAWVRQAPGQGLEWMGGINPTFTTPNYAQKFQGRVTITADESTNTAYLDLSSLRSEDTAVYYCARFRYYYESGGYSDASPYYLDYWGQGTLVTVSS
VL: EIVLTQSPATLSLSPGERVTLSCRASQSVSSYLAWYQQKPGQAPRLLIYDASNRATGIPARFTGSGSGTDFTLTISSLEPEDFAVYYCQQRSNWPLTFGGGTKVEIK
  EC50: 0.0303 µg/mL

B17: Z061 (BRA112_36) (antibody, V domains shown)
VH: EVQLVESGGGVVQPGRSLRLSCAASGFTFSISTIHWVRQAPGKGLEYVVVISHDGNTKYYADSVKGRFIISRDNSKNTVFLQMNSLRPVDTAVYYCARGEVGYFDLWGRGTLVTVSS
VL: EIVLTQSPATLSLSPGERATLSCRASQSVSSFLAWYQQKPGQPPRLLIYDASTRATGIPARFSGSGSGTDFTLTISSLEPEDFAVYYCQQRSNWPPITFGQGTRLEIK
  EC50: 0.311 µg/mL

B18: Z062 (BRA112_70) (antibody, V domains shown)
VH: EVQLVESGGGVVQPGRSLRLSCAASGFSFSSHAMYWVRQAPGKGLEWVAIVSYDGSTKNYADSVKGRFTISRDNSKNTIYLHLNSLRAEDTAVYFCAREVDGIYGYLHYWGQGTLVTVSS
VL: EIVLTQSPATLSLSPGERATLSCRARQNVRNFLAWYQQKPGQAPRLLIYDASNRATDIPARFSGSGSGTDFTLTISSLEPEDFAVYYCQQRSYSITFGQGTRLEIK
  EC50: 0.208 µg/mL

B19: Z016 (MEX84_p2-55) (antibody, V domains shown)
VH: QVQLVQSGAEVKKPGASVKLSCKASGYTFTSYYVHWVRQAPGQGLEWMGIINPGNNFVSFAQNFYDRATMTRDTSTNTVYMELTNLQSEDTAVYYCARTLVAPSAQSMYYFDFWGQGTLVTVSS
VL: EIVLTQSPGTLSLSPGERGTLSCRASQYITTGHFAWYQQKPGRAPRLLIYGASVRATGVPDRFSGSGAETDFTLTISRLDPEDVGVYYCQQYGSSPVTFGPGTKVDIK
  EC50: 0.0724 µg/mL

B20: Z057 (MEX84_p4-54) (antibody, V domains shown)
VH: EVQLVQSGAEVKRPGASVKVSCKASGYTFADYYIHWVRQAPGLGLEWMGWINPKTGFSHYEQTFQGRVTMARDTSIPAAYMELSSLKSDDTAIYYCARGGRINVAEALRYWGQGSLVTVSS
VL: DIQMTQSPSTLSTFVGDRVTITCRASQTIGDWLAWYQQKPGKAPKLLISKATRLESGVPSRFSGSGSETEFSLTINSLQPDDVAAYYCQQYMSYPWTFGQGTKLEIK
  EC50: 0.0828 µg/mL

B21: Z013 (MEX18_84) (antibody, V domains shown)
VH: EVQLLESGGGLVQPGGSLRLSCAASGFTFTSYAMNWVRQAPGKGLEWVSGIGGRGAIAGDGSIYYADSVKGRFTISRDNSKNIVYLQMNGLRVEDTAVYYCAKDRVAFDGFHVWGQGTLVTVSS
VL: DIQMTQSPPTLSASVGDRVTITCRASQSISSWLAWYQQKPGKAPKLLIYKASSLESGVPSRFSGSGSGTEFSLTISSLQPEDFATYYCQQYNSYPWTFGQGTKVEIK
  EC50: > 10 µg/mL

B22: Z036 (BRA112_91) (antibody, V domains shown)
VH: EVQLLESGGDLVQPGGSLRLSCAASGFTFSTYGMAWVRQAPGKGLEWLSSISSVDDSKYYAASVKGRFTISRDNSRNTLYLHMNSLRVDDTAVYYCAKDRIPHGLGELYANWGQGTLVTVSS
VL: DIQMTQSPSTLSASVGDRVTITCRASQSISGWLAWYQQKPGKAPRLLMHKASNLYSGVPSRFSGSGSGTEFTLTISSLQPDDFATYYCQHYHSYPYTFGQGTKVEIK
  EC50: 0.0172 µg/mL
